# Measurements taken from patent US7959916B2, “Negative immunomodulation of immune responses by ERp5” (Fred Hutchinson Cancer Research Center, priority 2007, dated 2011).
# Substitutions are numbered along the chain they refer to. In names and notes the source's numbering stands.
# T1: MICA (Homo sapiens, UniProt Q29983)
# T1 sequence (Q29983 24-203): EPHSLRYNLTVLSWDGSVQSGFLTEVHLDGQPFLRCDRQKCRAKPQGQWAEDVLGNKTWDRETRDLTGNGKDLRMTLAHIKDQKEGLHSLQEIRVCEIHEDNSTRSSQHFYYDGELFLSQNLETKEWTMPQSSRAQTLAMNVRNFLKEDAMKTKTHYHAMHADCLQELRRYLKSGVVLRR
# T2: MICA (Homo sapiens, UniProt Q29983)
# T2 sequence (Q29983 24-299): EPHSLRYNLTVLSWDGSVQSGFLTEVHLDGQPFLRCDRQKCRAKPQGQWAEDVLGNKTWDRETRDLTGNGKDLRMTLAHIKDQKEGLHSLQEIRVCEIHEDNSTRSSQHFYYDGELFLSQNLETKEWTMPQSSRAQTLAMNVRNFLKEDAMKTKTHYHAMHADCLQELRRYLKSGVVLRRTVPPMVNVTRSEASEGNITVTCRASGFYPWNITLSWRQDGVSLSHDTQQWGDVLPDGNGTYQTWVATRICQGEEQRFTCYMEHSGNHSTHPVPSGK
# T3: MICA (Homo sapiens, UniProt Q29983)
# T3 sequence (Q29983 210-297): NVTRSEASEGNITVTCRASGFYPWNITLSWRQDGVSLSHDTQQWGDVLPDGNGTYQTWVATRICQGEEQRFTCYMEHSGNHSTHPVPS
# T4: ERp5 (Homo sapiens, UniProt Q15084)
# T4 sequence (Q15084 20-440): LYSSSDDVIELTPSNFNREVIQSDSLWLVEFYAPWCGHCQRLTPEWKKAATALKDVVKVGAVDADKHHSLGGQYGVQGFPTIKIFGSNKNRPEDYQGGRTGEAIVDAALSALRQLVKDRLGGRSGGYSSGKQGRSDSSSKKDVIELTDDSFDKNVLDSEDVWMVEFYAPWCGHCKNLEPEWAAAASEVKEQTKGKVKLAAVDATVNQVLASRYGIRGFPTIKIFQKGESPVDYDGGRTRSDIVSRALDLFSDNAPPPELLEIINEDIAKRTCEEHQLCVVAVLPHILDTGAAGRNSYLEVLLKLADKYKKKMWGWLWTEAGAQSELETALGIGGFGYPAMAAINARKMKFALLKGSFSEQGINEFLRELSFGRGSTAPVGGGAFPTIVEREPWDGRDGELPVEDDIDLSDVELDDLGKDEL
# B1: dRNase: Denatured and reduced RNase A, excess substrate shifting ERp5 equilibrium towards the reduced state (protein, UniProt P61823 27-150, looked up)
# Ribonuclease pancreatic: KETAAAKFERQHMDSSTSAASSSNYCNQMMKSRNLTKDRCKPVNTFVHESLADVQAVCSQKNVACKNGQTNCYQSYSTMSITDCRETGSSKYPNCAYKTTQANKHIIVACEGNPYVPVHFDASV
# modifications: denatured and reduced
# notes: Denatured and reduced RNase A, excess substrate shifting ERp5 equilibrium towards the reduced state
# B2: native RNase: native RNase A used as control for dRNase (protein, UniProt P61823 27-150, looked up)
# Ribonuclease pancreatic: B1 Ribonuclease pancreatic
# B3: C36S: C36S mutant of ERp5 fragment 1-118 (protein)
# chain: LYSSSDDVIELTPSNFNREVIQSDSLWLVEFYAPWSGHCQRLTPEWKKAATALKDVVKVGAVDADKHHSLGGQYGVQGFPTIKIFGSNKNRPEDYQGGRTGEAIVDAALSALRQLVKD
# modifications: left off: small tags and cut ends
# B4: C39S: C39S mutant of ERp5 fragment 1-118 (protein)
# chain: B3 chain with S36C, C39S
# modifications: left off: small tags and cut ends
# B5: ERp51-118: recombinant N-terminal thioredoxin-like domain fragment of ERp5, residues 1-118 (protein)
# chain: B3 chain with S36C
# modifications: left off: small tags and cut ends
# B6: soluble MICA: soluble form of MHC class I-related chain A, NKG2D ligand binding ERp5 (protein)
# chain: T2 sequence (Q29983 24-299)
# B7: rMICA: Non-glycosylated recombinant MICA expressed in bacteria (protein)
# chain: T2 sequence (Q29983 24-299)
# Experiments:
# [1] = tested on: Siderocalin and CD94-NKG2A; assay: ERp5 activity assay on control proteins; format: biochemical; settings: Siderocalin (intrachain) and CD94-NKG2A (intrachain and interchain) disulfide bonds
# [2] = biological target: T1, MICA; assay: ERp5 activity assay on MICA substrates (non-reducing SDS-PAGE); format: biochemical; settings: isolated α1α2 platform (residues 1-180)
# [3] = biological target: T2, MICA; assay: as above; format: biochemical; settings: ectodomain MICA, RT, no reducing agents
# [4] = tested on: surface expression of MICA; assay: MICA surface expression on tumor cell lines (flow cytometry); settings: tumor lines exposed to DTNB or PAO at titered non-toxic concentrations
# [5] = tested on: sMICA shedding by Hela and A375 cells; assay: sMICA shedding by tumor cell lines (ELISA for sMICA)
# [6] = tested on: ERp5-MICA complexes; assay: Capturing of ERp5-MICA complexes by co-immunoprecipitation from TCA-treated Hela cells; format: cell-based; settings: Hela cells grown 16 h with increasing concentrations
# From the text: Immunoprecipitations and sMICA cleavage.
# [7] = biological target: T3, MICA; assay: ERp5 activity assay on MICA substrates (non-reducing SDS-PAGE); format: biochemical; settings: isolated α3 domain (residues 187-274)
# [8] = tested on: mDC and allogeneic T cells; assay: Mixed-lymphocyte reaction, alloantigen presentation by mDC ([3H]thymidine incorporation); format: cell-based; settings: MLR, soluble MICA 10 ng/ml, 72 h
# Method: mDC were matured using standard cytokine cocktail (Il-1β, IL-6, TNFα, and PGE2) in the additional presence or absence of soluble MICA (10 ng/ml). Mature mDC were harvested after 24 to 48 hours and processed for standard flow cytometry of CD80 and CD83 expression. For IL-6 secretion assays, 24 hour cytokine-matured mDC were washed, mixed with irradiated C1R-Neo (control), C1R-MICA or C1R-ULBP1 cells at a ratio of 2:1 and plated at 50,000 (experiment 1 and 2) or 200,000 mDC (experiment 3 and 4) per round-bottom 96-well in 200 μl AIM-V media with LPS (10 μg/ml). IL-6 contents in culture supernatants were measured by standard ELISA. The ability of mature mDC to present alloantigen in the presence or absence of soluble MICA was studied using standard mixed-lymphocyte reaction (MLR). Irradiated (3000 Rad) cytokine-matured mDC and allogeneic T cells were plated at various ratios (X-axis of bottom bar graph) with or without soluble MICA (10 ng/ml AIM-V) in round-bottom 96-well plates. After 72 hours, cells in wells were labeled with [^3H]thymidine for 24 hours and harvested for counting of incorporated radioactivity.
# [9] = tested on: PHA (or anti-CD3)-activated CD4 T cells; assay: Cytokine production by activated CD4 T cells (17 multiplex cytokine analysis); format: cell-based; settings: soluble MICA 10 ng/ml, 24 hour supernatants
# Method: Total PBMC from healthy donors were cultured for 48 hours with PHA (1 μg/ml) or on solid-phase anti-CD3 (25 ng/ml) and stained for standard three-color flow cytometry using combinations of directly conjugated anti-CD3, -CD4 and -CD8 mAbs followed by anti-ERp5 and PE-goat anti-rabbit Ig. For cytokine analyses, bulk NKG2D^+ and NKG2D^− T cell populations purified by magnetic sorting were plated on solid-phase monoclonal antibodies with or without soluble MICA (10 ng/ml). 24 hour culture supernatants were screened by 17 multiplex cytokine analysis.
# [10] = tested on: monocyte derived dendritic cells (mDC); assay: Maturation marker expression on monocyte-derived dendritic cells (flow cytometry); format: cell-based; settings: mDC matured with cytokine cocktail, soluble MICA 10 ng/ml
# Method: Monocytes were enriched from normal peripheral blood mononuclear cells (PBMC) by plastic adherence and cultured under standard conditions in the presence of IL-4 and GM-CSF. Cells were harvested at 6 hour-intervals and stained with fluorescein isothiocyanate (FITC)-anti-CD83 or FITC-HLA-DR followed by saturating phycoerythrin (PE)-MICA tetramer concentrations or polyclonal rabbit anti-ERp5 and PE-goat anti-rabbit Ig. On day 6 of culture with IL-4/GM-CSF, mDC were matured (IL-1β, IL-6, TNFα, and PGE2) and MICA tetramer staining and Erp5 expression monitored for an additional 3 days. MICA tetramer was produced by ectodomain MICA protein expression in transfected 293T cells, protein purification from culture supernatant using Invitrogen technology, and BirA enzymatic biotinylation and conjugation with PE-streptavidin.
# mDC were matured using standard cytokine cocktail (Il-1β, IL-6, TNFα, and PGE2) in the additional presence or absence of soluble MICA (10 ng/ml). Mature mDC were harvested after 24 to 48 hours and processed for standard flow cytometry of CD80 and CD83 expression. […] IL-6 contents in culture supernatants were measured by standard ELISA. […] After 72 hours, cells in wells were labeled with [^3H]thymidine for 24 hours and harvested for counting of incorporated radioactivity.
# [11] = biological target: T4, ERp5; assay: MICA tetramer binding to NKG2D-negative tumor cells (flow cytometry); settings: U266, Hela, HCT116, Lovo and A375 cells, competition with unglycosylated protein
molecule,measurement,setting,value
ERp5: recombinant ERp5 (residues 1-421 of the mature protein) produced in bacteria,reduction of unrelated proteins,[1],did not affect
same,activity on MICA α1α2 domain,[2],no activity
same,reduction of MICA disulfide bond,[3],gradual reduction of MICA
"O=C(O)c1cc(SSc2ccc([N+](=O)[O-])c(C(=O)O)c2)ccc1[N+](=O)[O-] [DTNB, 5,5-dithiobis-(2-nitrobenzoic acid), reference compound]",surface expression of MICA,[4],without affecting surface expression of MICA
same,shedding of sMICA,"[5]; Hela and A375 cells, 24 h exposure, ELISA, dose-dependent",reduce shedding of sMICA
B1,"ERp5 co-immunoprecipitating with MICA, emergence of sMICA",[6],larger amounts of ERp5 co-immunoprecipitating with MICA
same,sMICA shedding,"[5]; Hela and A375 cell cultures treated with dRNase, 16 h",promotes sMICA shedding
B2,"ERp5 co-immunoprecipitating with MICA, emergence of sMICA",[6],None of those biochemical changes were observed
B3,reduction of MICA disulfide bond,[3],no activity
B4,activity on MICA α3 domain,[7],reduces the MICA α3 disulfide bond
same,reduction of MICA disulfide bond,[3],formed a trapped disulfide-linked intermediate
B5,reduction of MICA disulfide bond,[3],partially reduced
B6,ability of mDC to present alloantigen and stimulate T cells,[8],reduced ability to present alloantigen and stimulate T cells
same,"amounts of IL-1β, IL-17, G-CSF and MCP1",[9]; NKG2D-CD4+ T cells,increased amounts
same,"amounts of IL-1β, IL-17, G-CSF and MCP1",[9]; activated NKG2D+CD4+ T cells,vastly increased
same,expression of DC maturation markers (CD83; CD80),[10],diminished
B7,MICA tetramer binding to NKG2D- tumor cells,[11],inhibited
